# Source: PMC6851183, “Computational design and characterization of nanobody-derived peptides that stabilize the active conformation of the β2-adrenergic receptor (β2-AR)” (Scientific Reports, 2019)
# B1: P3, nanobody-derived peptide (NDP) of Nb71 (peptide)
# peptide: EDTAVYYCNANWDLLSD
# notes: 17 aa stretch of the nanobody Nb71 (amino acid residues 88-104, includes CDR3), picked by computational peptide scanning; numbers count on Nb71; source: synthetic peptide, custom-synthesized at Biomatik Corporation
# Key:
# [1] = molecular target: T1, C-terminal GFP2-tagged β2-adrenergic receptor (β2-AR/GFP2) (human, UniProt P07550 1-413); assay: MST; lysate of HEK-293 cells with β2-AR/GFP2 kept constant as fluorescent target, P3 titrated in 1:1 dilutions, no agonist; MST buffer with 0.05% Tween 20, 25 °C; EC50 from bound fraction; conditions: one partner purified
# T1 construct: human β2-adrenergic receptor; not shown: GFP2, C-terminal, kept
# [2] = molecular target: T1, C-terminal GFP2-tagged β2-adrenergic …; assay: MST; lysate of HEK-293 cells with β2-AR/GFP2 kept constant as fluorescent target, P3 titrated in 1:1 dilutions, in the presence of 10 µM isoproterenol; MST buffer with 0.05% Tween 20, 25 °C; EC50 from bound fraction; conditions: one partner purified
binder,measurement,setting,value
B1,EC50,[1],58.2 ± 13.6 µM
same,EC50,[2],3.57 ± 0.81 µM
